Experimental data published in patent US20020068273A1 (published 2002).
Where no end group is shown, it is not given here.

Tests used:
biotin-Vpr52-96 (HIV-1) = biotin-Vpr52-96 (HIV-1) (UniProt P69726); assay: SPR, Langmuir isotherm, ANT104-116 on biotinylated Vpr52-96
[1] = target: T1, adenine nucleotide translocator (ANT), purified native protein (rat, UniProt Q05962 2-298); assay: SPR, ANT over immobilized Vpr52-96
T1 construct: mature; Used detergent-solubilized (SPR), reconstituted in liposomes or planar bilayers, or inside mitochondria (pull-down); also called adenine nucleotide translocase; ADP/ATP carrier
T1 sequence: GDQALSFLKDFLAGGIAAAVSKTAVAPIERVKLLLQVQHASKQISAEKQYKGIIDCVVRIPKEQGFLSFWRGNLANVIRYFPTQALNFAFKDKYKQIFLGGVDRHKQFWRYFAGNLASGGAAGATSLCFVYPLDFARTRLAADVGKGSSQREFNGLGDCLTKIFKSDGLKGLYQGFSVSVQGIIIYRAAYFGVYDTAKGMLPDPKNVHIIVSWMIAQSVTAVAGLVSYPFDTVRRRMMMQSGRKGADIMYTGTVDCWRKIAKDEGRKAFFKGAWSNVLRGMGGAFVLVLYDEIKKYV

[2] = target: T1, adenine nucleotide translocator (ANT), …; assay: not stated (summary of the inventors' findings)

## ANT-2-derived peptide ANT104-116
biotin-Vpr52-96 (HIV-1)
  Kd: 35000 nM

B1: biotin-Vpr52-96 (peptide)
peptide: DTWAGVEAIIRILQQLLFIHFRIGCRHSRIGVTRQRRARNGASRS
modifications: also: biotin, position not given here
notes: range 52-96; Synthetic biotinylated peptide, immobilized for SPR and used as bait in the avidin-agarose pull-down; also called biotinylated Vpr52-96; immobilized Vpr C-terminal moiety
[1]
  Kd: 9.7 nM

B2: Vpr protein of HIV-1 (14 Kd; 96 aa) (other)
chain: MEQAPEDQGPQREPHNEWTLELLEELKNEAVRHFPRIWLHGLGQHIYETYGDTWAGVEAIIRILQQLLFIHFRIGCRHSRIGVTRQRRARNGASRS
notes: also called HIV-1 Viral protein R
[2]
  Kd: 1 nM
